PMC9784577, “Cross-Feeding and Enzymatic Catabolism for Mannan-Oligosaccharide Utilization by the Butyrate-Producing Gut Bacterium Roseburia hominis A2-183” (Microorganisms, 2022)

Key:
[1] = target: α-galactosidase RhGal36A (Roseburia hominis A2-183); assay: native gel or EMSA; native-PAGE on 4-15% Mini-PROTEAN TGX precast gels, 30 min at 150 V, Native PAGE marker; size of the oligomer from the band's apparent mass against the monomer's mass
[2] = target: β-1,4 mannan-oligosaccharide phosphorylase RhMOP130A (Roseburia hominis A2-183); assay: as above

α-galactosidase RhGal36A (enzyme) was tested, and the stoichiometry N [1] was 4.

“β-1,4 mannan-oligosaccharide phosphorylase RhMOP130A (enzyme)” was tested, and the stoichiometry N [2] was 6.
